Laboratory results as given in IntAct's records for PubMed 30458687.

How the values were obtained:
[1] = biological target: apoa1_human APOA1 (UniProt P02647)
[2] = biological target: apoa1_human APOA1 (UniProt P02647); remark: listed apart in the source

apoa1_human APOA1, sequence (P02647 whole entry): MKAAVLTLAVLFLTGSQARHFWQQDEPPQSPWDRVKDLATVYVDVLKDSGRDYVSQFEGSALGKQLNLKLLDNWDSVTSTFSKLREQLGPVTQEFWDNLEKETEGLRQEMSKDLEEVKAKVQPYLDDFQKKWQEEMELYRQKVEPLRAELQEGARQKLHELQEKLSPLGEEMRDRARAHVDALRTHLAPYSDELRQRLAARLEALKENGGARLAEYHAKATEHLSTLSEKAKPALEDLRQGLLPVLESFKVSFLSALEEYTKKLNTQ

effect of a mutation on the interaction [1]: disrupting interaction strength
effect of a mutation on the interaction [2]: disrupting interaction strength
Substance: Phospholipid-transporting ATPase ABCA1 (Homo sapiens), O95477 K939M;K1952M
